B1: Activin receptor type-1B (Homo sapiens), P36896 (parent)
chain: MAESAGASSFFPLVVLLLAGSGGSGPRGVQALLCACTSCLQANYTCETDGACMVSIFNLDGMEHHVRTCIPKVELVPAGKPFYCLSSEDLRNTHCCYTDYCNRIDLRVPSGHLKEPEHPSMWGPVELVGIIAGPVFLLFLIIIIVFLVINYHQRVYHNRQRLDMEDPSCEMCLSKDKTLQDLVYDLSTSGSGSGLPLFVQRTVARTIVLQEIIGKGRFGEVWRGRWRGGDVAVKIFSSREERSWFREAEIYQTVMLRHENILGFIAADNKDNGTWTQLWLVSDYHEHGSLFDYLNRYTVTIEGMIKLALSAASGLAHLHMEIVGTQGKPGIAHRDLKSKNILVKKNGMCAIADLGLAVRHDAVTDTIDIAPNQRVGTKRYMAPEVLDETINMKHFDSFKCADIYALGLVYWEIARRCNSGGVHEEYQLPYYDLVPSDPSIEEMRKVVCDQKLRPNIPNWWQSYEALRVMGKMMRECWYANGAARLTALRIKKTLSQLSVQEDVKI

Variants of: B1
Settings: with smad7_human SMAD7, O15105
Chain of smad7_human SMAD7, O15105 (O15105 whole entry): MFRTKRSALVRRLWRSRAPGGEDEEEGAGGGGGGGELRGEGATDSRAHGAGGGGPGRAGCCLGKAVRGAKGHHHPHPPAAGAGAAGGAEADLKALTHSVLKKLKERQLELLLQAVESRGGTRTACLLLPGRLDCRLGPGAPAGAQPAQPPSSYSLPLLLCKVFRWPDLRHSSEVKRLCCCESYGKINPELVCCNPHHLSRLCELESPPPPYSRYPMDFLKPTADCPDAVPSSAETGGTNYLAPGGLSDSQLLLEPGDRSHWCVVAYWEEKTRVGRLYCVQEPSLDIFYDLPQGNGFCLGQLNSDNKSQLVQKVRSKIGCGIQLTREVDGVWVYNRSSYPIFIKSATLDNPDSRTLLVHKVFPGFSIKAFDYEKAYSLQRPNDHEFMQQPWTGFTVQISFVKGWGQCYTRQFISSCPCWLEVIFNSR

Variant	effect of a mutation on the interaction
T206E	increasing interaction
